Consider one molecule from patent US20050048070A1 (published 2005).

Test in all cases: Western blot of SDS-PAGE-separated K8 GST fusion proteins, stained with COU-1 alone
(In western blotting, separated proteins are transferred to a membrane and probed.)

One test has as its target T1, K8 (1-129).
T1 construct: not shown: N-terminal GST carrier (modified pGEX-2T) and any linker
T1 chain: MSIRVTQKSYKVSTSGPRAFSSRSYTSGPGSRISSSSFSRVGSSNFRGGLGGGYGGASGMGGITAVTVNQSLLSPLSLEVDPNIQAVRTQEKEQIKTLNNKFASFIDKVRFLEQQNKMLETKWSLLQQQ

Test [1] has as its target T2, K8(1-65) GST fusion protein (human, UniProt P05787 2-66).
T2 construct: Alone, not complexed; not shown: glutathione S-transferase (GST) fusion partner, modified pGEX-2T vector
T2 sequence: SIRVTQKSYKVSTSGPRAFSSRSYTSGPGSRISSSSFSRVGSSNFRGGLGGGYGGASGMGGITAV

The target in a further test is T3, K8 (1-85).
T3 construct: also called K8(1-85) GST fusion protein; not shown: N-terminal GST carrier (modified pGEX-2T) and its linker
T3 chain: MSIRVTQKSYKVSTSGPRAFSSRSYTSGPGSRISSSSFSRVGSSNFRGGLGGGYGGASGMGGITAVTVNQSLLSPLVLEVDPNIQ

The next test has as its target T4, K8 (1-367).
T4 construct: not shown: N-terminal GST and its linker (modified pGEX-2T)
T4 chain: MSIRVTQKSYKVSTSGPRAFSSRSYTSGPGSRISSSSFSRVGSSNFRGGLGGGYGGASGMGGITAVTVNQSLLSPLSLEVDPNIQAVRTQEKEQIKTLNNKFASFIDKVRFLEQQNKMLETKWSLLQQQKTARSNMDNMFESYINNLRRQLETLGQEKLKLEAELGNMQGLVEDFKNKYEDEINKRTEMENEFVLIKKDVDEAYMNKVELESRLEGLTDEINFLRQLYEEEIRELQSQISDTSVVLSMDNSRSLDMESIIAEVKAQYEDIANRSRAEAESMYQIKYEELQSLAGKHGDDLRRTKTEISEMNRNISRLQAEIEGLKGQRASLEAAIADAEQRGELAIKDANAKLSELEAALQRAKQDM

In a further test the target is T5, K8 (1-383).
T5 construct: not shown: N-terminal GST and its linker (modified pGEX-2T)
T5 chain: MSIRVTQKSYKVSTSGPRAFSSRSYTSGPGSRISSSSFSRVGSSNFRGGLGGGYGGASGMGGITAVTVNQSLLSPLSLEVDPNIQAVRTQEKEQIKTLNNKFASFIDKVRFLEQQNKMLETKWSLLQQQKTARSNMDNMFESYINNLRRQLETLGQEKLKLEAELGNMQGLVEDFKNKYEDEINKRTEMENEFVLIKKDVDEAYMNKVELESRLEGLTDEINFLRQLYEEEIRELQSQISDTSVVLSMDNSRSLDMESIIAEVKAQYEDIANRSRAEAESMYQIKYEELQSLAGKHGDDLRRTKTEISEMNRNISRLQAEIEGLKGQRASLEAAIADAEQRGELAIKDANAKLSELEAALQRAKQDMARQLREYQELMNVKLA

For a further test, the target named is T6, K8 (1-299).
T6 construct: not shown: N-terminal GST and its linker (modified pGEX-2T)
T6 chain: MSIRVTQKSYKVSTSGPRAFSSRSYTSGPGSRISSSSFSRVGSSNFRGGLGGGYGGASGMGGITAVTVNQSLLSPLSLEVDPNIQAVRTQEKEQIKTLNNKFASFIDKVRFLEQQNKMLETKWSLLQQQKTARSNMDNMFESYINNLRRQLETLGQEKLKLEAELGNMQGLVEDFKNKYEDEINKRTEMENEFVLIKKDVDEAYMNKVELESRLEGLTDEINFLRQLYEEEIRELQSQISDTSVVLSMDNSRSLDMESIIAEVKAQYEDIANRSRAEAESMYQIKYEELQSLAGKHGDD

The next test deals with T7, K8 (1-233).
T7 construct: not shown: N-terminal GST carrier (modified pGEX-2T) and any linker
T7 chain: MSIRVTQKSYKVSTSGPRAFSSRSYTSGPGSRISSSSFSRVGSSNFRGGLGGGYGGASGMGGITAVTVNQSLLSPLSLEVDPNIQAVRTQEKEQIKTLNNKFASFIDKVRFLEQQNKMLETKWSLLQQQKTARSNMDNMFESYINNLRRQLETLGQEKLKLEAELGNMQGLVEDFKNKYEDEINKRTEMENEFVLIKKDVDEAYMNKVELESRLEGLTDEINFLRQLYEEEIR

Description for K8 (1-129): (§1) Electrophoresis was performed in a discontinuous buffer system on 8 cm 4-20% or 10% (w/v) polyacrylamide gels for analysis and on 15 cm 14% polyacrylamide gels for N-terminal sequencing (36). Samples were mixed with 2× sample buffer (4% SDS, 0.2% bromophenol blue, 20% glycerol in 100 mM Tris buffered saline), boiled for 5 min and resolved under denaturing and reducing (100 mM DTT) conditions. Protein bands were visualized with Coomassie Brilliant Blue. Separated proteins were also electroblotted onto polyvinylidene difluoride membranes (PVDF, Immobilon P, Millipore, Bedford, Mass.), at 100 Volts for 1 h in ice, using transfer buffer (10% (v/v) ethanol, 25 mM Tris, 200 mM glycine). Prior to transfer, the membrane was pre-soaked in ethanol for 2 min and the membranes and the gel were incubated in transfer buffer for 10 min. […] The membrane was washed in Western blot buffer and incubated with AP-conjugated rabbit-anti-goat IgG antibody (diluted 1/1000, Sigma), or AP-conjugated rabbit-anti-human IgM antibody (diluted 1/500, DAKO, Glostrup, Denmark) for 2 h at room temperature. Following 3 washes in PBS, the membrane was fixed with 0.2% glutaraldehyde in PBS for 15 min at room temperature and finally washed in PBS. Bound AP conjugate was visualized by NBT/BCIP (Bio-Rad, Hercules, Calif.). MCF7 or Colon 137 cells, resuspended in SDS sample buffer and sonicated, were used as antigen control. A low range protein marker (Bio-Rad) was used to indicate the molecular weight of the fragments.
Description for K8 (1-233): as §1
Description for K8 (1-299): as §1
Description for K8 (1-367): as §1
Description for K8 (1-383): as §1
Description for K8 (1-85): as §1

B1: human monoclonal IgM antibody COU-1 (antibody, V domains shown)
VH: GAEVKKPGASVKVSCKASDYTFSSYYMHWVRQAPGQGLEWMGIINPSGGSTSYAQKFQGRVTMTRDTSTNTVYMELSSLRSEDTAVYYCARDQVVVAATLSNYGMDVWGQGTTVTVSS
VL: ELTQSPGTLSLSPGERATLSCRASQSVSSSYLAWYQQKPGQAPRLLIYDASNRATGIPARFSGSGSGTDFTLTISSLEPEDFAVYYCQQGTNWGIAFGQGTRLDIKR
notes: Human IgM with kappa light chain, secreted by hybridoma B9165 (ECACC 87040201), purified from culture supernatant; also called HMab COU-1; HuMab COU-1
Take B1: the binding result (with K8 (1-129); in test [1]; with K8 (1-85); with K8 (1-367); in the test with K8 (1-383); with K8 (1-299)) was “no binding (tested: 5 µg/ml COU-1 (P-0279))” throughout. The binding result with K8 (1-233) is given as “no binding (tested: 5 µg/ml COU-1 (P-0279))”.
